The record followed here is patent US20250250357A1 (NANJING ZAIMING PHARMACEUTICAL, published 2025).

The target of experiment [1] is T1, human MSLN-R1-his protein (human, UniProt Q13421 296-390).
T1 construct: Region 1 of human mesothelin, made in HEK293E cells, His-tagged; also called human MSLN-R1 protein; hMSLN-R1-his; not shown: His tag
T1 chain: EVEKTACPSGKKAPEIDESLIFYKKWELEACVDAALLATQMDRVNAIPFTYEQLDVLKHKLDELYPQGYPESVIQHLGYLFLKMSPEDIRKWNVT
As to the kind of experiment: ELISA on coated MSLN-R1; antibody 0.001 nM.

The target in experiment [2] is T2, human MSLN-R3-his protein (human, UniProt Q13421 487-598).
T2 construct: Region 3 of human mesothelin, made in HEK293E cells, His-tagged; also called human MSLN-R3 protein; hMSLN-R3-his; not shown: His tag
The experiment is described as follows: ELISA on coated MSLN-R3; antibody 100 nM. (ELISA stands for enzyme-linked immunosorbent assay.)

Experiment [3] has as its target T2, human MSLN-R3-his protein. The experiment is described as follows: ELISA on coated MSLN-R3; antibody 0.0001 nM.
Experiment [4] deals with T1, human MSLN-R1-his protein. As to the kind of experiment: ELISA on coated MSLN-R1; antibody 0.01 nM.
Method: (§1) The plate was sealed with a plastic film and incubated at 4° C. overnight. The next day, the plate was washed twice with PBST, and a blocking buffer [PBS+2% (w/w) BSA] was added for blocking at room temperature for 2 h. The blocking buffer was discarded, and a chimeric antibody or negative control antibody serially diluted from 100 nM was added at 50 μL/well. After incubation at 37° C. for 2 h, the plate was washed 3 times with PBST. […] After incubation at 37° C. for 2 h, the plate was washed 5 times with PBST. A TMB substrate was added at 50 μL/well for incubation at room temperature for 5-10 min, and then a stop solution (1.0 N HCl) was added at 50 μL/well.
For experiment [5], the target named is T3, human MSLN-R2-his protein (human, UniProt Q13421 391-486).
T3 construct: Region 2 of human mesothelin, made in HEK293E cells, His-tagged; also called human MSLN-R2 protein; hMSLN-R2-his; not shown: His tag
The experiment is described as follows: ELISA on coated MSLN-R2; antibody 0.0001 nM.

The target in experiment [6] is T3, human MSLN-R2-his protein. The experiment is described as follows: ELISA on coated MSLN-R2; antibody 0.01 nM.
Method: as §1
The target of experiment [7] is T3, human MSLN-R2-his protein. As to the kind of experiment: ELISA on coated MSLN-R2; antibody 0.001 nM.
Method: as §1
The target in experiment [8] is T2, human MSLN-R3-his protein. The experiment is described as follows: ELISA on coated MSLN-R3; antibody 1 nM.
Method: as §1
Experiment [9] has as its target T2, human MSLN-R3-his protein. The experiment is described as follows: ELISA on coated MSLN-R3; antibody 0.001 nM.
For experiment [10], the target named is T1, human MSLN-R1-his protein. The experiment is described as follows: ELISA on coated MSLN-R1; antibody 1 nM.
For experiment [11], the target named is T2, human MSLN-R3-his protein. The experiment is described as follows: ELISA on coated MSLN-R3; antibody 10 nM.
Method: as §1
Experiment [12] concerns the target T3, human MSLN-R2-his protein. As to the kind of experiment: ELISA on coated MSLN-R2; antibody 10 nM.
The target in experiment [13] is T1, human MSLN-R1-his protein. As to the kind of experiment: ELISA on coated MSLN-R1; antibody 10 nM.
Experiment [14] concerns the target T3, human MSLN-R2-his protein. The experiment is described as follows: ELISA on coated MSLN-R2; antibody 0.1 nM.
Method: as §1
Experiment [15] concerns the target T1, human MSLN-R1-his protein. As to the kind of experiment: ELISA on coated MSLN-R1; antibody 0.0001 nM.
The target of experiment [16] is T3, human MSLN-R2-his protein. As to the kind of experiment: ELISA on coated MSLN-R2; antibody 1 nM.
In experiment [17] the target is T3, human MSLN-R2-his protein. The experiment is described as follows: ELISA on coated MSLN-R2; no antibody (blank).
Method: as §1
Experiment [18] addresses T2, human MSLN-R3-his protein. The experiment is described as follows: ELISA on coated MSLN-R3; antibody 0.01 nM.
Method: as §1
The target in experiment [19] is T1, human MSLN-R1-his protein. As to the kind of experiment: ELISA on coated MSLN-R1; antibody 0.1 nM.
The target of experiment [20] is T2, human MSLN-R3-his protein. As to the kind of experiment: ELISA on coated MSLN-R3; antibody 0.1 nM.
Method: as §1
For experiment [21], the target named is T1, human MSLN-R1-his protein. As to the kind of experiment: ELISA on coated MSLN-R1; no antibody (blank).
Method: as §1
The target in experiment [22] is T3, human MSLN-R2-his protein. As to the kind of experiment: ELISA on coated MSLN-R2; antibody 100 nM.
Method: as §1
Experiment [23] deals with T2, human MSLN-R3-his protein. The experiment is described as follows: ELISA on coated MSLN-R3; no antibody (blank).
For experiment [24], the target named is T1, human MSLN-R1-his protein. As to the kind of experiment: ELISA on coated MSLN-R1; antibody 100 nM.
Method: as §1

T3 sequence (Q13421 other isoform, or with tags, fused parts or gaps): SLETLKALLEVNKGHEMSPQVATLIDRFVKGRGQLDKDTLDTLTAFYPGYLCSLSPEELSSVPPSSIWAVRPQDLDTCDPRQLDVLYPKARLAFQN
T2 sequence (Q13421 495-606): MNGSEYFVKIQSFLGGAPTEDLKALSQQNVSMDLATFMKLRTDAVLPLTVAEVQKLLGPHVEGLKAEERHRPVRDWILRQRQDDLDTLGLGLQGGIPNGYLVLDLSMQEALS

B1: S009-F8-22.23 (antibody, human IgG1, kappa, V domains shown)
VH: QVQLKQSGPGLVQPSQSLSITCTVSGFSLFSYGVHWVRQSPGKGLEWLGVIWSGGSTDYNAAFISRLSISKDNSKSQVFFKMNSLQADDTAMYYCARNGGSMITTLYYAMDYWGQGTSVTVSS
VL: DVVMTQTPLSLPVSLGDQASISCRSSQSLVHSYGNTYLHWYLQKPGQSPKLLIYKVSNRFSGVPDRFSGSGSGTDFTLKISRVEAEDLGVYFCSQSTHIPFTFGGGTKLEIKR
Take B1: the OD450 amounted to 0.36 OD450 in experiment [1]; 0.1 OD450 in experiment [2]; 0.04 OD450 in experiment [3]; 0.78 OD450 in [4]; 0.04 OD450 in [5]; 0.04 OD450 in [6]. For the same molecule, the OD450 was 0.05 OD450 in experiment [7]; 0.04 OD450 in experiment [8]; 0.04 OD450 in [9]; 2.34 OD450 in experiment [10]; 0.05 OD450 in experiment [11]; 0.11 OD450 in experiment [12]. The OD450 in [13] came to 2.51 OD450; in experiment [14], 0.05 OD450; in experiment [15], 0.26 OD450; in experiment [16] it was 0.08 OD450; in experiment [17] it was 0.04 OD450; in [18], 0.04 OD450. Also, the OD450 in experiment [19] was 1.72 OD450; in [20] it was 0.04 OD450; in [21], 0.04 OD450; in experiment [22], 0.17 OD450; in experiment [23] it was 0.04 OD450; in experiment [24], 2.55 OD450.

B2: S009-F8-24.14 (antibody, human IgG1, kappa, V domains shown)
VH: EFQLQQSGPELVKPGASVKISCKASGYSFTDYNMNWVKLSNGKSLEWIGVIIPNYGTSSYNQKFKGKATLTVDQSSSTAYMQLNSLTSEDSAVYYCARWDNYYGSSLDYWGQGTTLTVSS
VL: DIVMTQSQKFMSTTVGDRVSITCKASQNVGTAVAWYQQKPGQSPKLLIYSASNRYTGVPDRFTGSGSGTDFILTISNMQSEDLADYFCQQYSSYPLTFGAGTKLELKR
As for B2, the OD450 was determined as 0.07 OD450 in experiment [1]; 0.06 OD450 in experiment [2]; 0.04 OD450 in [3]; 0.13 OD450 in experiment [4]; 0.04 OD450 in [5]; 0.04 OD450 in experiment [6]. The OD450 in experiment [7] was 0.04 OD450; in experiment [8], 0.04 OD450; in [9], 0.04 OD450; in [10], 1.63 OD450; in experiment [11], 0.05 OD450; in experiment [12], 0.04 OD450. In addition, the OD450 in [13] was 2.24 OD450; in experiment [14], 0.04 OD450; in experiment [15] it was 0.05 OD450; in experiment [16], 0.04 OD450; in experiment [17], 0.04 OD450; in experiment [18] it was 0.04 OD450. For the same molecule, the OD450 in experiment [19] came out at 0.64 OD450; in experiment [20], 0.04 OD450; in experiment [21], 0.04 OD450; in [22], 0.05 OD450; in experiment [23], 0.04 OD450; in [24], 2.34 OD450.

B3: S009-F8-15.19 (antibody, human IgG1, kappa, V domains shown)
VH: EFQLQQSGPELVKPGASVKISCKASGYSFTDYNMNWVKQSNGKSLEWIGIINPYYGTTSNNQNFKGKATLTVDQSSSTAYMQLNSLTSDDSAVYYCARWLRRDAMDYWGQGTSVTVSS
VL: DIVMTPSHKFMSTSVGDRVSIACKASQDVGSSVAWYQQKPGQSPKLLIYWTSTRHTGVPDRFTGSGSGTDFTLTISNVQSEDLADYFCQQYSSYPWTFGGGTKLEIKR
With B3, the OD450 was found to be 0.05 OD450 in [1]; 0.08 OD450 in experiment [2]; 0.04 OD450 in experiment [3]; 0.05 OD450 in experiment [4]; 0.05 OD450 in experiment [5]; 0.04 OD450 in experiment [6]. The OD450 in experiment [7] came to 0.04 OD450; in experiment [8] it was 0.04 OD450; in experiment [9], 0.04 OD450; in [10], 0.54 OD450; in experiment [11] it was 0.05 OD450; in experiment [12] it was 0.05 OD450. In addition, the OD450 in [13] came to 1.55 OD450; in experiment [14], 0.04 OD450; in experiment [15], 0.04 OD450; in experiment [16], 0.04 OD450; in experiment [17] it was 0.05 OD450; in [18] it was 0.04 OD450. In addition, the OD450 in experiment [19] was found to be 0.1 OD450; in [20] it was 0.04 OD450; in experiment [21], 0.05 OD450; in [22] it was 0.05 OD450; in experiment [23] it was 0.05 OD450; in experiment [24], 2.07 OD450.

B4: S009-F8-18.9 (antibody, human IgG1, kappa, V domains shown)
VH: EFQLQQSGPELVKPGASVKISCKASGYSFTDYNMNWVKQSNGKSLEWIGIINPNYGTTSYNQKFKGRATLTVDQSSSTAYVQLNSLTSEDSAVYYCARGGYDNEAMDYWGQGTSVTVSS
VL: QIVLTQSPAIMSASPGEKVTMTCSASSSVSYMHWYQQKSGTSPKRWIYDTSKLASGVPARFSGSGSGTSYSLTISSMEAEDAATYYCQQWSSNPPTFGAGTKLELKR
Take B4: the OD450 came out at 0.15 OD450 in [1]; 0.1 OD450 in [2]; 0.04 OD450 in [3]; 0.62 OD450 in [4]; 0.04 OD450 in [5]; 0.04 OD450 in experiment [6]. For the same molecule, the OD450 in experiment [7] came out at 0.04 OD450; in experiment [8], 0.05 OD450; in experiment [9], 0.05 OD450; in experiment [10], 1.96 OD450; in experiment [11] it was 0.06 OD450; in experiment [12], 0.06 OD450. Further, the OD450 in experiment [13] was 2.12 OD450; in experiment [14] it was 0.04 OD450; in experiment [15], 0.06 OD450; in experiment [16], 0.05 OD450; in experiment [17] it was 0.05 OD450; in experiment [18], 0.04 OD450. The OD450 in experiment [19] is 1.73 OD450; in experiment [20], 0.04 OD450; in [21], 0.05 OD450; in [22], 0.08 OD450; in experiment [23], 0.05 OD450; in experiment [24], 2.15 OD450.

B5: S009-F8-19.21 (antibody, human IgG1, kappa, V domains shown)
VH: EFQLQQSGPELVKPGASVKISCKTSGYSFTDYNMNWVKQSNGKSLEWIGVINPNYGTTGYNQKFKGKATLTVDQSSSTAYMQLNSLTSEDSAVYYCARGGYDGEAMDYWGHGTSVTVSS
VL: QIVLTQSPAIMSASPGEKVTMTCSASSSVNYMHWYQQKSGTSPKRWIYDTSKLASGVPARFSGSGSGTSYSLTISSMEAEDAATYYCQQWSSYPPTFGGGTKLEIKR
For B5, the OD450 was 0.1 OD450 in [1]; 0.09 OD450 in experiment [2]; 0.04 OD450 in [3]; 0.39 OD450 in experiment [4]; 0.05 OD450 in [5]; 0.04 OD450 in experiment [6]. Besides, the OD450 worked out at 0.04 OD450 in experiment [7]; 0.04 OD450 in experiment [8]; 0.04 OD450 in [9]; 1.82 OD450 in experiment [10]; 0.05 OD450 in [11]; 0.06 OD450 in experiment [12]. Also, the OD450 in experiment [13] turned out to be 2.11 OD450; in experiment [14] it was 0.04 OD450; in experiment [15], 0.06 OD450; in experiment [16], 0.05 OD450; in [17], 0.05 OD450; in experiment [18] it was 0.04 OD450. For the same molecule, the OD450 in [19] is 1.46 OD450; in [20], 0.04 OD450; in experiment [21], 0.05 OD450; in experiment [22], 0.06 OD450; in [23], 0.05 OD450; in [24], 2.13 OD450.
